{"source": "patent US20080187548A1", "about": "(LUDWIG INSTITUTE FOR CANCER RESEARCH, published 2008)", "experiment_in_all_cases": "cell-based or functional assay", "key": {"HLA-DRB1*0401": {"target": "HLA-DRB1*0401 (human)"}, "HLA-DRB1*0101": {"target": "HLA-DRB1*0101 (human)"}, "HLA-DRB1*0701": {"target": "HLA-DRB1*0701 (human)"}, "HLA-DRB1*0301": {"target": "HLA-DRB1*0301 (human)"}}, "data": [{"binder": "TIRLTAADHRQLQLS", "note": "[NY-ESO-1 peptide, amino acids 134-148 (TIRLTAADHRQLQLS; SEQ ID NO: 2)]", "values": [{"measurement": "Responding patients (%)", "setting": "HLA-DRB1*0401", "result": 28.6, "unit": "%"}, {"measurement": "Responding patients (n = 38)", "setting": "HLA-DRB1*0401", "result": 2, "unit": "patients"}, {"measurement": "Responding patients (%)", "setting": "HLA-DRB1*0101", "result": 28.6, "unit": "%"}, {"measurement": "Responding patients (n = 38)", "setting": "HLA-DRB1*0101", "result": 2, "unit": "patients"}, {"measurement": "Responding patients (%)", "setting": "HLA-DRB1*0701", "result": 14.3, "unit": "%"}, {"measurement": "Responding patients (n = 38)", "setting": "HLA-DRB1*0701", "result": 1, "unit": "patients"}, {"measurement": "Responding patients (%)", "setting": "HLA-DRB1*0301", "result": 10, "unit": "%"}, {"measurement": "Responding patients (n = 38)", "setting": "HLA-DRB1*0301", "result": 1, "unit": "patients"}]}]}
